The target of test [1] is T1, full-length untagged human GPNMB expressed on cells (human, UniProt Q14956 23-572).
T1 sequence: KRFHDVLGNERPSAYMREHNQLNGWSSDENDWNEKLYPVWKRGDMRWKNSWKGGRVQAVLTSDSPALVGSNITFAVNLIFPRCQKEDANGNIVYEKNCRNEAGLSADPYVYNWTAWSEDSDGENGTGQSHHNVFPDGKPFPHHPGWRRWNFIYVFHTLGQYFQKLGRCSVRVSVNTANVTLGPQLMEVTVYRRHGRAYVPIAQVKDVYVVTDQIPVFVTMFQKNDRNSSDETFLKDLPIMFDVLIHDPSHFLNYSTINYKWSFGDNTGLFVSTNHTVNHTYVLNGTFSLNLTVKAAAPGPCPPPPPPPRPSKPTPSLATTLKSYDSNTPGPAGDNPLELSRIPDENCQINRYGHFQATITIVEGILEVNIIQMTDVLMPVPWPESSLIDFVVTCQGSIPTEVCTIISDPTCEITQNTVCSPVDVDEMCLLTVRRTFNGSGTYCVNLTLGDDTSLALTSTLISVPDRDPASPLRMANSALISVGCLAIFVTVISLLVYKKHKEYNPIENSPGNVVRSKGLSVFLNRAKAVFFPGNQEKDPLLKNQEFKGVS
Briefly: cell-based or functional assay.

For test [2], the target named is T2, soluble cynomolgus GPNMB (recombinant extracellular domain) (cynomolgus, UniProt Q14956 23-499 (human entry), limits assumed).
T2 chain: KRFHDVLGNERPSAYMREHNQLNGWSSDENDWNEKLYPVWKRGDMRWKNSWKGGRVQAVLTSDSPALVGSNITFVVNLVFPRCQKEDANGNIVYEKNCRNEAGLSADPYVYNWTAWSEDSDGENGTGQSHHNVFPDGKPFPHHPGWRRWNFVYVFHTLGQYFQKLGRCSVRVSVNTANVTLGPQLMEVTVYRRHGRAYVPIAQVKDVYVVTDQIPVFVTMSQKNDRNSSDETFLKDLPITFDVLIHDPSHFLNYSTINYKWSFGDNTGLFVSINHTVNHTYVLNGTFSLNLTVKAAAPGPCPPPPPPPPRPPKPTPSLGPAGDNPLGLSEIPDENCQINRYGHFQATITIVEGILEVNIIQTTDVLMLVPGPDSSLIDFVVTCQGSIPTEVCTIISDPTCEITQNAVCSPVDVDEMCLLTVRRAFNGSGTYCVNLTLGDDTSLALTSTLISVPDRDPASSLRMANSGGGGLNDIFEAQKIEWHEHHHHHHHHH
Briefly: SPR Carterra, Ab immobilized. A digest of the protocol:
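Antibodies amine-coupled on HC200M chip in a 96-spot array; recombinant GPNMB ECD analytes injected at 2.5–600 nM, lowest to highest, without regeneration. Running buffer HBS-EP+ with 0.5 mg/ml BSA; two buffer blanks between species series. Kinetics fitted to yield affinity estimates.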

B1: anti-GPNMB antibody GPN-37 (antibody, human IgG1, V domains shown)
VH: EVQLVESGGGLVQPGRSLKLSCAASGFTFSSKSGMAWVRQAPTKGLEWVASISNGGGDTYYRDSVKGRFTISRDNAKNTQYLQMDSLRPEDTATYYCARHRDYGYDAYFDYWGQGVMVTVSS
VL: DIQMTQSPASLSASLGETVTIECLASEDIYSSLAWYQQKPGKSPQLLIYDASSLQDGVPSRFSGSESGTQYSLEINSLQSEDAATYFCQQHHDYPYTFGAGTKLELK
notes: chimeric
Turning to B1, the “GCase (FoB)” value in test [1] turned out to be 1.01 FoB.

B2: anti-GPNMB antibody GPN-01 (antibody, human IgG1, V domains shown)
VH: QVQLQQSGAELAKPGASVKLSCKASGYNFTNYCIHWVKQRPGQGLEWIGYINPSTGYTEYNQKFKDKATLTADKSSTTAYMQLSSLTSEDSAVYYCARGRYDEFTYWGQGTLVTVSA
VL: DIVLTQSPASLAVSLGQRATISCRASKSVSTSTYSYMHWYQQKPGQPPKLLIYLASNLESGVPARFSGSGSGTDFTLNIHPVEEEDAATYYCQHSRELPPTFGGGTKLEIK
notes: chimeric
Turning to B2, in test [2], the Kd stood at 31 nM, the koff worked out at 0.0034 s⁻¹ and the kon came to 110000 M⁻¹ s⁻¹. In addition, in test [1], the “CD40 (FoB)” value was 1.74 FoB, the “CD80 (FoB)” value worked out at 1.36 FoB, the “GCase (FoB)” value was 1.05 FoB and the “PDL1 (FoB)” value was found to be 1.7 FoB.

B3: anti-GPNMB antibody GPN-48 (antibody, human IgG1, V domains shown)
VH: QVQLQQSGPELVKPGASVKLSCRASGYGFSSFWMNWVKQRPGKGLEWIGRIYPGKGDTLYNGKFKDKATLTADESSSTAYMQLSSLTSEDSAVYFCARSIYYYDYWYFDVWDTGTTVTVSS
VL: DIVMTQSHKFMSTSVGDRVNITCKASQDVNSAIAWYQQKPGQSPKLLIYSASYRFIGVPDRFTGSGSGTGFTFTISSVQAEDLAVYYCQQHYTTPLTFGAGTKLELK
notes: chimeric
Take B3: in test [1], the “CD40 (FoB)” value stood at 1.06 FoB, the “CD80 (FoB)” value was found to be 1.06 FoB, the “GCase (FoB)” value worked out at 1.02 FoB and the “PDL1 (FoB)” value stood at 1.14 FoB.

B4: anti-GPNMB antibody GPN-24 (antibody, human IgG1, V domains shown)
VH: QVQLQQPGAELVKPGASVKMSCKASGYTFTSYWITWVKQRPGQGLEWIGDIHPGSGRSNYNEKFKNKATLNVDTSSSTVYMQLSSLTSEDSAVYYCARDYLFAYWGQGTLVTVSA
VL: DIQMTQSPSSLSASLGERVSLTCRASQEISGYLSWLQQKPDGTIKRLIYSTSTLDSGVPKRFSGSRSGSDYSLTISSLESEDFADYYCLQYTSSPPTFGGGTKLEIK
notes: chimeric
Turning to B4, in test [2], the Kd stood at 8.3 nM, the koff was 0.00061 s⁻¹ and the kon turned out to be 77000 M⁻¹ s⁻¹. In test [1], the “CD40 (FoB)” value was 1.56 FoB, the “CD80 (FoB)” value stood at 1.2 FoB, the “GCase (FoB)” value was determined as 1.22 FoB and the “PDL1 (FoB)” value was determined as 1.48 FoB.

B5: anti-GPNMB antibody GPN-22 (antibody, human IgG1, V domains shown)
VH: QVQLQQPGAERVKPGASVKMSCKASGYTFTSYWITWVKQRPGQGLEWIGDIFPGSGSTNYHEKFKSKATLTVDTSSSTAYMQLSSLTSEDSAVYYCSRGYFGSSFSDYWGQGTSVTVSS
VL: DIQMTQSPSSLSASLGERVSLTCRTSQEISGYLSWLQQKPDGTIKRLIYSTSTLDSGVPKRFSGSRSGSDYSLTISSLESEDFADYYCLQYASSPPTFGSGTKLEIK
notes: chimeric
B5: in test [2], the Kd is 104 nM, the koff amounted to 0.0033 s⁻¹ and the association rate constant (kon) was 32000 M⁻¹ s⁻¹. In test [1], the “CD40 (FoB)” value came out at 1.7 FoB, the “CD80 (FoB)” value is 1.16 FoB, the “GCase (FoB)” value stood at 1.21 FoB and the “PDL1 (FoB)” value is 1.76 FoB.

B6: anti-GPNMB antibody GPN-30 (antibody, human IgG1, V domains shown)
VH: EVQLQQSGPELVNPGASVRISCKASGYSFTGYYMNWVKQSPEKSLEWIGEINPNTGFTTYNQNFKAKATLTVDKSSSTAYIQLKSLTSEDSAVYYCTRPSPSFDYWGQGTTLTVSS
VL: DIQMTQSPSSLSASLGERGSLTCRASQEISGHLSWLQQKPDGTIKRLIYAASTLDSGVPKRFSGSRSGSDYSLTISSLESEDFADYYCLQYASYPYTFGGGTKLEIK
notes: chimeric
Consider B6, for which, in test [2], the Kd was 5.1 nM, the koff worked out at 0.00013 s⁻¹ and the kon was found to be 26000 M⁻¹ s⁻¹. Further, in test [1], the “CD40 (FoB)” value worked out at 1.75 FoB, the “CD80 (FoB)” value was found to be 1.34 FoB, the “GCase (FoB)” value came out at 1.27 FoB and the “PDL1 (FoB)” value amounted to 1.64 FoB.

B7: anti-GPNMB antibody GPN-07 (antibody, human IgG1, V domains shown)
VH: QVQLQQSGAEQVKPGASVKLSCKASGYTFTSYYMYWVKQRPGQGLEWIGEINPSNGGTYFNEKFKSKATLTVDKSSSTAYMHLSSLTSEDSAVYYCTRGGTYYAYWGQGTLVTVSA
VL: DIQMTQSPSSLSASLGERVSLTCRASQEMSGHLSWLQQKPDGTIKRLIYAASTLDSGVPKRFSGSRSGSDYSLTISSLESEDFADYYCLQYASYPYTFGGGTKLEIK
notes: chimeric
In the case of B7, in test [2], the Kd was found to be 11.3 nM, the koff is 0.00025 s⁻¹ and the kon was found to be 22000 M⁻¹ s⁻¹. In addition, in test [1], the “CD40 (FoB)” value worked out at 1.39 FoB, the “CD80 (FoB)” value turned out to be 1.29 FoB, the “GCase (FoB)” value came to 2.13 FoB and the “PDL1 (FoB)” value came to 1.67 FoB.

B8: anti-GPNMB antibody GPN-26 (antibody, human IgG1, V domains shown)
VH: EVQLQQSGPELVKPGASVKISCKASGYSFTGYYMNWVRQSPEKSLEWIGEINPSTGITTYNQKFKAKATLTVDKSSNTAFMQLKSLTSEDSAVYYCARPASWFDYWGQGTLVTVSA
VL: DIQMTQSPSSLSASLGERVSLTCRASQEISGHLSWLQQKPDGTIKRLIYAASTLDSGVPKRFSGSRSGSDYSLTISSLESEDFADYYCLQYASYPYTFGGGTKLEIK
notes: chimeric
In the case of B8, in test [2], the Kd turned out to be 8.9 nM, the koff came to 0.00027 s⁻¹ and the kon is 31000 M⁻¹ s⁻¹. In test [1], the “CD40 (FoB)” value is 1.91 FoB, the “CD80 (FoB)” value stood at 1.4 FoB and the “PDL1 (FoB)” value worked out at 1.88 FoB.

B9: anti-GPNMB antibody GPN-31 (antibody, human IgG1, V domains shown)
VH: EVQLQQSGPELVKPGASVKISCKASGYSFTGYYMNWVKQSPEKNLEWIGEINPNTGGTTYNQKFKAKATLTVDKSSTTAYMQLKSLTSEDSAVYYCTRPASWFDYWGQGTLVTVSA
VL: DIQMTQSPSSLSASLGERVSLTCRASQEISGHLSWLQQKPDGTIKRLIYAASTLDSGVPKRFSGRRSGSDYSLTISSLESEDFADYYCLQYASYPYTFGGGTKLAIK
notes: chimeric
As for B9, in test [2], the dissociation constant (Kd) is 11.2 nM, the koff amounted to 0.00036 s⁻¹ and the on-rate (kon) was 32000 M⁻¹ s⁻¹. For the same molecule, in test [1], the “CD40 (FoB)” value was 1.9 FoB, the “CD80 (FoB)” value was 1.44 FoB, the “GCase (FoB)” value was determined as 1.22 FoB and the “PDL1 (FoB)” value came to 1.82 FoB.

B10: anti-GPNMB antibody GPN-09 (antibody, human IgG1, V domains shown)
VH: QVQLQQSGAELVKPGASVKLSCKASGYTFTSYYIYWVKQRPGQGLEWIGEINPSNGGTYFNEKFKNKATLTVDKSSSTAYMQLSSLTSEDSAVYYCTRGGNYYAYWGQGTLVTVSA
VL: DIQMTQSPSSLSASLGERVSLTCRASQEISGHLGWLQQKPDGTIKRLIYAALTLDSGVPKRFSGSRSGSDYSLTISSLESEDFADYYCLQYASYPYTFGGGTKLEIK
notes: chimeric
As for B10, in test [2], the dissociation constant (Kd) was 8.4 nM, the koff is 0.00012 s⁻¹ and the kon was found to be 14000 M⁻¹ s⁻¹. In test [1], the “CD40 (FoB)” value was found to be 1.49 FoB, the “CD80 (FoB)” value worked out at 1.19 FoB, the “GCase (FoB)” value amounted to 1.26 FoB and the “PDL1 (FoB)” value is 1.5 FoB.

B11: anti-GPNMB antibody GPN-25 (antibody, human IgG1, V domains shown)
VH: EVQLQQSGPELVKPGASVKISCKASGYSFTGYYMNWVKQSPEKSLEWIGEINPGSGITTYNQKFKAKATLTVDKSSSTAYLQLKSLTSEDSAVYYCARPASWFAYWGQGTLVTVSA
VL: DIQMTQSPSSLSASLGERVSFICRASQEISGHLSWLQQKPDGTIKRLIYAASTLDSGVPKRFSGSRSGSDYSLTISSLESEDFADYYCLQYASYPYTFGGGTKLEIK
notes: chimeric
Take B11: in test [2], the Kd was found to be 7.4 nM, the koff worked out at 0.0002 s⁻¹ and the kon is 30000 M⁻¹ s⁻¹. In addition, in test [1], the “CD40 (FoB)” value came out at 1.68 FoB, the “CD80 (FoB)” value was 1.41 FoB, the “GCase (FoB)” value worked out at 1.24 FoB and the “PDL1 (FoB)” value came to 1.73 FoB.

B12: anti-GPNMB antibody GPN-11 (antibody, human IgG1, V domains shown)
VH: QVQLQQPGAELVKPGASVKLSCKASGYTFTSYWMHWVKQRPGQGLEWIGEINSSNGRTNYNEKFKTKATLTVDRSSSTAYMQLSSLTSEDSAVYYCARLGYYSGSPYPYYAMDCWGQGTSVTVSS
VL: DIQMTQSPASLSVSVGETVTITCRASENIYSNLAWYQQKQGKSPQLLVYAATNLADGVPSRFSGSGSGTQYSLKINSLQSEDFGSYYCQHFWNTPPTFGGGTKLEIK
notes: chimeric
In the case of B12, in test [2], the Kd was 12.1 nM, the koff amounted to 0.00095 s⁻¹ and the kon came out at 83000 M⁻¹ s⁻¹. For the same molecule, in test [1], the “CD40 (FoB)” value turned out to be 1.7 FoB, the “CD80 (FoB)” value was found to be 1.25 FoB, the “GCase (FoB)” value came out at 1.24 FoB and the “PDL1 (FoB)” value amounted to 1.64 FoB.

For orientation: Kd means the concentration at which binding is half-saturated. As usually defined, the koff is the rate constant with which the complex falls apart. The kon is the rate constant with which the complex forms.

Source of the values: patent US20250270343A1 (Alector, published 2025).
